From patent US6627405 (CURAGEN, dated 2003)

T1: CAS (GenBank Acc. No. U33286) (UniProt P55060 1-971, limits assumed)
T1 construct: Bait hybrid expressed in yeast strain N106r
T1 sequence (looked up): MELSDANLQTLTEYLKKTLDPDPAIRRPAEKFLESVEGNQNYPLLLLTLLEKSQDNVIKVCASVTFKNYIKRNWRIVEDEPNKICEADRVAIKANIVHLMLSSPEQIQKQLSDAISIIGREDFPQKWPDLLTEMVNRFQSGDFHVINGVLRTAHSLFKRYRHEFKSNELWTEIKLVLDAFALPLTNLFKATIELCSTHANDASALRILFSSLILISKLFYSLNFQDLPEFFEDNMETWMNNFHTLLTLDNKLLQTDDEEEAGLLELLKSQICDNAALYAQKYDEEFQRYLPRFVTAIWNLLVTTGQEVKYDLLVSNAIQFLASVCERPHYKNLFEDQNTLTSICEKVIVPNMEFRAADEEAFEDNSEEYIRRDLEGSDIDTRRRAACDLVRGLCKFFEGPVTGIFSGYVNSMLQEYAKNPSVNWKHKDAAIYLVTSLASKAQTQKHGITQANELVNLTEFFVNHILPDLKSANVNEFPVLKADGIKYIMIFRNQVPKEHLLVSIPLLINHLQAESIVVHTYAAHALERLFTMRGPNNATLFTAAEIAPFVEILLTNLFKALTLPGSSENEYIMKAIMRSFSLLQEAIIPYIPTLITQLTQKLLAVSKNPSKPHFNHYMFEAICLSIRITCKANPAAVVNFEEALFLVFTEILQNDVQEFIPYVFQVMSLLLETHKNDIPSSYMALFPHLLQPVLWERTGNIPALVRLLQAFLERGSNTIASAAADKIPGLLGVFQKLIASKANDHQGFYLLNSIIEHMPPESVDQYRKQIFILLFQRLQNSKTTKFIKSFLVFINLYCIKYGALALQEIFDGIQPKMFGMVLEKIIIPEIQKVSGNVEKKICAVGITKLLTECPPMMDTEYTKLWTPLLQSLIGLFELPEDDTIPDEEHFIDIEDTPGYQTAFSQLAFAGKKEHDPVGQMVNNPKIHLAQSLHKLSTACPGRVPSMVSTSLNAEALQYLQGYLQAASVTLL

T2: Ral GDS (GenBank Acc. No. U14417) (UniProt Q12967 1-914, limits assumed)
T2 construct: Expressed as a Gal4 hybrid in yeast
T2 sequence (looked up): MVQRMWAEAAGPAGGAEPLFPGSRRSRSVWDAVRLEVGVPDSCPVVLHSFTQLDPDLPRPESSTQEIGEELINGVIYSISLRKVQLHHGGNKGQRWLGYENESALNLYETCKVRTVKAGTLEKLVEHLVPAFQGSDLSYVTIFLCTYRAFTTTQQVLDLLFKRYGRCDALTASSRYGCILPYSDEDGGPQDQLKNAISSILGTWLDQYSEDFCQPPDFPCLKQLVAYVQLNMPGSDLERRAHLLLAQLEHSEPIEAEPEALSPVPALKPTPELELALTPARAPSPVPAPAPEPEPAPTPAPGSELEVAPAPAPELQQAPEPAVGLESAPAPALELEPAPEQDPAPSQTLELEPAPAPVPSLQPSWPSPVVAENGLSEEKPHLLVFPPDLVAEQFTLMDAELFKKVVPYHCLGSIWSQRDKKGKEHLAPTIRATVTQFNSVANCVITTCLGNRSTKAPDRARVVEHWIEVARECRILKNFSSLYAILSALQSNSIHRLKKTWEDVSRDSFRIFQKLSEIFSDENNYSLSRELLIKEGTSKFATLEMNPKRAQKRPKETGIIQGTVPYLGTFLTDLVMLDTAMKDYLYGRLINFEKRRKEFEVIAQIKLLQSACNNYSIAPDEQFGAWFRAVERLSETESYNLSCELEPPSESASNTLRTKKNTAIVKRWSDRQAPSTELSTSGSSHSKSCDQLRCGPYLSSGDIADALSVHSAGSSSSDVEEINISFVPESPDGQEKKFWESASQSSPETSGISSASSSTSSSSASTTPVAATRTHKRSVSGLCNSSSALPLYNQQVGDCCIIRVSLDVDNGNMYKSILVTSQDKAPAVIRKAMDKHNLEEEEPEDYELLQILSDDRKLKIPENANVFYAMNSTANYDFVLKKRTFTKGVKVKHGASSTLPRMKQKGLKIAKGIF

T3: pRb (GenBank Acc. No. M28419) (UniProt P06400 1-928, limits assumed)
T3 construct: Expressed as a Gal4 hybrid in yeast
T3 sequence (looked up): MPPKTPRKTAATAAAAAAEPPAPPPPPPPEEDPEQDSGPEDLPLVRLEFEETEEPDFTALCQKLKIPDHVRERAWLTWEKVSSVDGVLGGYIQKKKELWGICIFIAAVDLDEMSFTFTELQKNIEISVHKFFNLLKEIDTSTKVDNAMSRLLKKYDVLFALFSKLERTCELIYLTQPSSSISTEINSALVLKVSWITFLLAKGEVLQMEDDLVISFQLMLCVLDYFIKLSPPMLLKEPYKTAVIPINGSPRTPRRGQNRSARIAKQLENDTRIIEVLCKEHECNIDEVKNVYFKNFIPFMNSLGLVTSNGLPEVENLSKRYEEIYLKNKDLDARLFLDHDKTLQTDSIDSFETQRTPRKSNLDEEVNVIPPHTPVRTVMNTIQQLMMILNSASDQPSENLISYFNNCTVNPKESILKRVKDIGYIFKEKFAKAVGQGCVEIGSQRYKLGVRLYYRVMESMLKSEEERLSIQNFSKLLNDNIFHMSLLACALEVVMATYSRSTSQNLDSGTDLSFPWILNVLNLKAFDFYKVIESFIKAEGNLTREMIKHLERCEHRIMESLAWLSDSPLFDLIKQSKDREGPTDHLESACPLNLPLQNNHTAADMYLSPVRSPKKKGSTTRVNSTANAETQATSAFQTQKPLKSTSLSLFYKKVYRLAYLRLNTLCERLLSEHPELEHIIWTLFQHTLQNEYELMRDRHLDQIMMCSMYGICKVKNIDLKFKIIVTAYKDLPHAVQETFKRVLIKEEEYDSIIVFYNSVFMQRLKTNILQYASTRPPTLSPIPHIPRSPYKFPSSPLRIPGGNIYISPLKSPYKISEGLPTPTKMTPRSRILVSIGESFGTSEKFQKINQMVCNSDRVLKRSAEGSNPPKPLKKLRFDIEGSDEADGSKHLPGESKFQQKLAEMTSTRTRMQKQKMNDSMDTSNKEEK


Legend:
Assay in all cases: yeast two hybrid mating, growth on selective medium
[1] = target: T4, MDM2 (GenBank Acc. No. M92424) (UniProt Q00987 1-491, limits assumed)
T4 construct: Bait hybrid expressed in yeast strain N106r; also called MDM2 bait
T4 sequence (Q00987 whole entry, one chain of several): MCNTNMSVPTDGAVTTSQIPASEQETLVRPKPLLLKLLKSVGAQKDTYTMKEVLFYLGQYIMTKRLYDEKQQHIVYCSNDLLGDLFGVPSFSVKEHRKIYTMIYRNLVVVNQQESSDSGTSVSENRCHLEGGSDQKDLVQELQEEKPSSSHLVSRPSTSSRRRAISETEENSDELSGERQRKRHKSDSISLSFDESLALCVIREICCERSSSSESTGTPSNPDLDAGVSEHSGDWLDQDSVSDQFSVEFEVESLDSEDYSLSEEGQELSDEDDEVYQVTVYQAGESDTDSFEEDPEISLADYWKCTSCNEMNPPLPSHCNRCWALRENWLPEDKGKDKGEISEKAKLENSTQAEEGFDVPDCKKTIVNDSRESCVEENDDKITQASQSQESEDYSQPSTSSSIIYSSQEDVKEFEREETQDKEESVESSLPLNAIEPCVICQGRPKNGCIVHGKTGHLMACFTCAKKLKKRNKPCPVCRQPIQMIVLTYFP
Protocol: (§1) The two mating strains, alpha and a, were then, diluted in YAPD media (Sherman et al., eds., 1991, *Getting Started with Yeast*, Vol. 194, Academic Press, New York), filtered onto nitrocellulose membranes, and incubated at 30 degrees Celsius for 6–8 hours. The cells were then transferred to media selective for the desired diploids, i.e., yeast harboring reporter genes for beta-galactosidase, uracil auxotrophy, and histidine auxotrophy, and expression of the vectors encoding the bait and prey. The mating products were plated on SC (synthetic complete) (Kaiser et al. eds., 1994, *Methods in Genetics*, 1994 ed., Cold Spring Harbor Press, New York, p. 209) media lacking adenine and lysine (to select for successful mating), leucine and tryptophan (to select for expression of genes encoded by both the bait and prey plasmids), and uracil and histidine (to select for protein interactions). This medium is herein referred to as SCS medium, for SC Selective medium.
(§2) No. X03541, Martin-Zanca, et al., 1986, Nature 319: 743–748), EST M62042 (Adams et al., 1991, Science 252: 1651–1656), Ral GDS (GenBank Acc. No. U14417, Hofer, et al., 1994, Proc. Natl. Acad. Sci. U.S.A. 91: 11089–11093) or E2F (GenBank Acc. […] No. M92424, Oliner et al., 1994, direct submission), CAS (GenBank Acc. No. U33286, Brinkmann et al., 1995, Proc. Natl. Acad. Sci. U.S.A. 92: 10427–10431), and PA9 (GenBank Acc. No. S82076, Yang et al., 1996, Carcinogenesis 17:563–567) Specifically, lack of growth for p62 and β-tubulin interactions with MDM2 is depicted in FIG. 7.

[2] = target: T1, CAS (GenBank Acc. No. U33286)
Protocol: as §1, §2

[3] = target: T2, Ral GDS (GenBank Acc. No. U14417)
Protocol: as §1, §2

[4] = target: T3, pRb (GenBank Acc. No. M28419)
Protocol: as §1, §2

| binding result [1] | binding result [2] | binding result [3] | binding result [4] | Binder |
| --- | --- | --- | --- | --- |
| no binding | no binding | – | – | p62 prey sequence, amino acids 275-443 (other, yeast) NGVPEPSRGRGVPVRGRGAAPPPPPVPRGRGVGPPRGALVRGTPVRGAITRGATVTRGVPPPPTVRGAPAPRARTAGIQRIPLPPPPAPETYEEYGYDDTYAEQSYEGYEGYYSQSQGDSEYYDYGHGEVQDSYEAYGQDDWNGTRPSLKAPPARPVKGAYREHPYGRY |
| – | – | no binding | no binding | 53BP2 bait fragment, amino acids 704-1005 (C-terminus) of human 53BP2 (other, also called BBP; not shown: residues not) SPGLDYEPEGVPDNSPNLQNNPEEPNPEAPHVLDVYLEEYPPYPPPPYPSGEPEGPGEDSVSMRPPEITGQVSLPPGKRTNLRKTGSERIAHGMRVKFNPLALLLDSSLEGEFDLVQRIIYEVDDPSLPNDEGITALHNAVCAGHTEIVKFLVQFGVNVNAADSDGWTPLHCAASCNNVQVCKFLVESGAAVFAMTYSDMQTAADKCEEMEEGYTQCSQFLYGVQEKMGIMNKGVIYALWDYEPQNDDELPMKEGDCMTIIHREDEDEIEWWWARLNDKEGYVPRNLLGLYPRIKPRQRSLA |
